Experimental data published in patent publication US20060251655A1.

B1: W746stop (C-terminal deletion variant of ADAMTS-13, FLAG appended) (protein)
chain: PSHFQQSCLQALEPQAVSSYLSPGAPLKGRPPSPGFQRQRQRQRRAAGGILHLELLVAVGPDVFQAHQEDTERYVLTNLNIGAELLRDPSLGAQFRVHLVKMVILTEPEGAPNITANLTSSLLSVCGWSQTINPEDDTDPGHADLVLYITRFDLELPDGNRQVRGVTQLGGACSPTWSCLITEDTGFDLGVTIAHEIGHSFGLEHDGAPGSGCGPSGHVMASDGAAPRAGLAWSPCSRRQLLSLLSAGRARCVWDPPRPQPGSAGHPPDAQPGLYYSANEQCRVAFGPKAVACTFAREHLDMCQALSCHTDPLDQSSCSRLLVPLLDGTECGVEKWCSKGRCRSLVELTPIAAVHGRWSSWGPRSPCSRSCGGGVVTRRRQCNNPRPAFGGRACVGADLQAEMCNTQACEKTQLEFMSQQCARTDGQPLRSSPGGASFYHWGAAVPHSQGDALCRHMCRAIGESFIMKRGDSFLDGTRCMPSGPREDGTLSLCVSGSCRTFGCDGRMDSQQVWDRCQVCGGDNSTCSPRKGSFTAGRAREYVTFLTVTPNLTSVYIANHRPLFTHLAVRIGGRYVVAGKMSISPNTTYPSLLEDGRVEYRVALTEDRLPRLEEIRIWGPLQEDADIQVYRRYGEEYGNLTRPDITFTYFQPKPRQAWVWAAVRGPCSVSCGAGLRWVNYSCLDQARKELVETVQCQGSQQPPAWPEACVLEPCPPYWDYKDDDDK
B2: W808stop (C-terminal deletion variant of ADAMTS-13, FLAG appended) (protein)
chain: PSHFQQSCLQALEPQAVSSYLSPGAPLKGRPPSPGFQRQRQRQRRAAGGILHLELLVAVGPDVFQAHQEDTERYVLTNLNIGAELLRDPSLGAQFRVHLVKMVILTEPEGAPNITANLTSSLLSVCGWSQTINPEDDTDPGHADLVLYITRFDLELPDGNRQVRGVTQLGGACSPTWSCLITEDTGFDLGVTIAHEIGHSFGLEHDGAPGSGCGPSGHVMASDGAAPRAGLAWSPCSRRQLLSLLSAGRARCVWDPPRPQPGSAGHPPDAQPGLYYSANEQCRVAFGPKAVACTFAREHLDMCQALSCHTDPLDQSSCSRLLVPLLDGTECGVEKWCSKGRCRSLVELTPIAAVHGRWSSWGPRSPCSRSCGGGVVTRRRQCNNPRPAFGGRACVGADLQAEMCNTQACEKTQLEFMSQQCARTDGQPLRSSPGGASFYHWGAAVPHSQGDALCRHMCRAIGESFIMKRGDSFLDGTRCMPSGPREDGTLSLCVSGSCRTFGCDGRMDSQQVWDRCQVCGGDNSTCSPRKGSFTAGRAREYVTFLTVTPNLTSVYIANHRPLFTHLAVRIGGRYVVAGKMSISPNTTYPSLLEDGRVEYRVALTEDRLPRLEEIRIWGPLQEDADIQVYRRYGEEYGNLTRPDITFTYFQPKPRQAWVWAAVRGPCSVSCGAGLRWVNYSCLDQARKELVETVQCQGSQQPPAWPEACVLEPCPPYWAVGDFGPCSASCGGGLRERPVRCVEAQGSLLKTLPPARCRAGAQQPAVALETCNPQPCPARWDYKDDDDK
B3: W897stop (C-terminal deletion variant of ADAMTS-13, FLAG appended) (protein)
chain: PSHFQQSCLQALEPQAVSSYLSPGAPLKGRPPSPGFQRQRQRQRRAAGGILHLELLVAVGPDVFQAHQEDTERYVLTNLNIGAELLRDPSLGAQFRVHLVKMVILTEPEGAPNITANLTSSLLSVCGWSQTINPEDDTDPGHADLVLYITRFDLELPDGNRQVRGVTQLGGACSPTWSCLITEDTGFDLGVTIAHEIGHSFGLEHDGAPGSGCGPSGHVMASDGAAPRAGLAWSPCSRRQLLSLLSAGRARCVWDPPRPQPGSAGHPPDAQPGLYYSANEQCRVAFGPKAVACTFAREHLDMCQALSCHTDPLDQSSCSRLLVPLLDGTECGVEKWCSKGRCRSLVELTPIAAVHGRWSSWGPRSPCSRSCGGGVVTRRRQCNNPRPAFGGRACVGADLQAEMCNTQACEKTQLEFMSQQCARTDGQPLRSSPGGASFYHWGAAVPHSQGDALCRHMCRAIGESFIMKRGDSFLDGTRCMPSGPREDGTLSLCVSGSCRTFGCDGRMDSQQVWDRCQVCGGDNSTCSPRKGSFTAGRAREYVTFLTVTPNLTSVYIANHRPLFTHLAVRIGGRYVVAGKMSISPNTTYPSLLEDGRVEYRVALTEDRLPRLEEIRIWGPLQEDADIQVYRRYGEEYGNLTRPDITFTYFQPKPRQAWVWAAVRGPCSVSCGAGLRWVNYSCLDQARKELVETVQCQGSQQPPAWPEACVLEPCPPYWAVGDFGPCSASCGGGLRERPVRCVEAQGSLLKTLPPARCRAGAQQPAVALETCNPQPCPARWEVSEPSSCTSAGGAGLALENETCVPGADGLEAPVTEGPGSVDEKLPAPEPCVGMSCPPGWGHLDATSAGEKAPSPWGSIRTGAQAAHVWDYKDDDDK

Biological target: von Willebrand factor (vWF), prepared from plasma cryo fraction, P04275

Row | Protein | vWF cleaving activity (SDS-PAGE)
1 | B1 | vWF cleaving activity was clearly recognized from the full-length molecule to W688stop molecule
2 | B2 | vWF cleaving activity was clearly recognized from the full-length molecule to W688stop molecule
3 | B3 | vWF cleaving activity was clearly recognized from the full-length molecule to W688stop molecule
